From US8741844B2, “Use of mutated antithrombins for treating or preventing coagulation disorders” (Universite Paris-Sud XI, priority 2007, dated 2014) come the findings set out here.

For assay [1], the system named is pentasaccharide bound plasma antithrombin (plasma anti-factor Xa activity). Nature of the assay: Rotachrom heparin anti factor Xa assay in pentasaccharide containing human plasma (competition with plasma antithrombin for pentasaccharide binding). Type of assay: biochemical. The settings on record: for effect on anti-Xa activity of pentasaccharide containing plasma sample: human plasma, pre-incubation 30 min at 37° C. The protocol:
Anti factor Xa inhibitory activity of mutated antithrombins AT-R393H(SEQ ID NO: 4), AT-Pro394 (SEQ ID NO: 6), AT-ΔR393-5394 (SEQ ID NO: 18), AT-ΔR393 (SEQ ID NO: 8), AT-ΔS394 (SEQ ID NO: 10), AT-N135Q-R393H(SEQ ID NO: 14), AT-N135Q-Pro394 (SEQ ID NO: 16), AT-N135Q-ΔR393-S394 (SEQ ID NO: 24), AT-N135Q-ΔR393 (SEQ ID NO: 20), AT-N135Q-ΔS394 (SEQ ID NO: 22) is measured in pentasaccharide containing plasma. The plasma concentrations of pentasaccharides are defined on the basis on those measured in patients treated by the pentasaccharide under the conditions of a regular (curative) use of this molecule or in patients presenting an overdose of this drug, knowing that the optimal equilibrium concentration is 1.20-1.26 mg/L and the minimal equilibrium concentration is 0.46-0.62 mg/L during a curative pentasaccharide treatment (monograph, Arixtra®).
The anti factor Xa assay is performed using the Rotachrom® heparin method (Stago) adaptated for absorbance reading on a microplate reader (Dynatech MR 5000), or a STA analyser (Stago).
The procedure consists in mixing 30 μl of pentasaccharide containing plasma sample diluted four times in kinetic buffer, with 75 μl of chromogenic substrate (1 mM, provided in Rotachrom® heparin kit). After 4 min incubation, 75 μl of bovine factor Xa (24 nM, Rotachrom® heparin kit) is added to the plasma-substrate mixture. The factor Xa activity is measured a 405 nm absorbance increase, resulting from cleavage of the chromogenic substrate, using a microplate reader (Dynatech MR 5000). The rate constant (k), proportional to anti-factor Xa activity, is obtained by fitting the substrate hydrolysis curve to equation (3) or (3′).
Firstly, the assay is calibrated in citrated (0.105 M) normal human plasma containing pentasaccharide concentrations ranging from 0 to 3 mg/L. A standard curve is generated and anti-factor Xa activity is expressed as mg of pentasaccharide per liter of plasma.
Secondly, to evaluate the anti factor Xa inhibitory activity of mutated antithrombins, the mutated antithrombin (0-0.6 g/L, preferably 0.15-0.6 g/L, final concentration, in kinetic buffer) is pre-incubated with an equal volume of pentasaccharide (0-3 mg/L, preferably 1-3 mg/L) containing plasma samples, during 30 min at 37° C.
Under these conditions, the mutated antithrombin concentration range from one to four times that of the plasma antithrombin level, which is compatible with a therapeutic use of antithrombin. Indeed, very high doses of mutated antithrombin, with a 5 fold increase in plasma antithrombin level, have already been used during clinical trials without side effects (Leitner J M, Firbas C, Mayr F B, Reiter R A, Steinlechner B, Jilma B., Recombinant human antithrombin inhibits thrombin formation and interleukin 6 release in human endotoxemia. Clin Pharmacol Ther. 2006 January; 79(1):23-34). Anti factor Xa inhibitory activity is then evaluated as previously described.
To estimate whether mutated antithrombin can be used as reversal of pentasaccharide in case of over-dosing, AT-N135Q-R393H(SEQ ID NO: 14) and AT-N135Q-Pro394 (SEQ ID NO: 16) are tested in Rotachrom® heparin assay for their ability to restore factor Xa activity. Under conditions of treatment for prevention of venous thromboembolic events, optimal pentasaccharide concentration ranges between 1.2 and 1.26 μg/mL in plasma. To mimic an over-dosing, pentasaccharide is added to human plasma pool at concentration of 3 μg/ml. Rotachrom® heparin assay is then performed by incubation of plasma over-dosed with pentasaccharide in the presence of mutated antithrombin in a ratio 1/1, 2/1, and 4/1 compared to plasma antithrombin concentration (i.e. 0.15, 0.3, 0.6 g/l). In this ex vivo assay, anti-factor Xa activity is proportional to the amount of pentasaccharide bound natural antithrombin present in tested plasma, which amount is directly proportional to pentasaccharide concentration in plasma. […]

The subject of assay [2] is plasma anti FXa activity in mice treated with pentasaccharide. The assay is described as follows: Murine model: mutated antithrombins as antidotes of fondaparinux, plasma anti FXa activity. Type of assay: in vivo, mouse. The settings on record: injection of mutated antithrombin after fondaparinux. The protocol:
The efficiency of the mutated antithrombins AT-R393H(SEQ ID NO: 4), AT-Pro394 (SEQ ID NO: 6), AT-ΔR393-S394 (SEQ ID NO: 18), AT-ΔR393 (SEQ ID NO: 8), AT-ΔS394 (SEQ ID NO: 10), AT-N135Q-R393H(SEQ ID NO: 14), AT-N135Q-Pro394 (SEQ ID NO: 16), AT-N135Q-ΔR393-S394 (SEQ ID NO: 24), AT-N135Q-ΔR393 (SEQ ID NO: 20), AT-N135Q-A5394 (SEQ ID NO: 22) as antidotes is evaluated in a murine model.
The different drugs to be tested (fondaparinux, low molecular weight heparin, full length heparin and the mutated antithrombins) are administrated by intra-venous injection in the caudal vein to avoid the variability encountered when administration is performed subcutaneously. However, Heparin derivatives (fondaparinux, low molecular weight heparin and full length heparin) could also be administrated subcutaneously.
The blood is collected by punction in cave vein into tubes containing 0.105 mol/L trisodium citrate (1:10). Platelet-poor plasma is obtained by centrifugation at 2300 g for 10 minutes at 12° C. and stored at −80° C. until use.
The following elements are determined: • the doses of fondaparinux inducing an overdose in mice, • the mutated antithrombins time course, and in particular the time required to observe a maximal biological effect, • the minimal doses of mutated antithrombins necessary to neutralize fondaparinux.
For each of these experiments, 4 groups of 5 mice each are used: • In the first group mice receive fondaparinux vehicle and then antidote (mutated antithrombin) vehicle. • In the second group, mice receive fondaparinux and then antidote vehicle • In the third group, mice receive fondaparinux vehicle and then antidote • In the last group, mice receive fondaparinux and then antidote
Anti FXa activity measurements is performed as previously described using a Stachrom Heparin® kit on a STA (Stago, France) or a Rotachrom Heparin® kit with procedure adapted for measurement in microplate reader (Dynatech MR 5000). A calibration curve with pentasaccharide is performed, allowing the expression of the results in nmol/ml (or in mg/L) of plasma.
Thus, the antidote (mutated antithrombins) is administered intravenously, 5 min after the intra-venous injection of the fondaparinux, and 5, 15 or 30 min after the subcutaneous injection of the fondaparinux.
The mutated antithrombin time course is studied by measuring the plasma anti-Xa activity 5 min, 10 min, 20 min and 40 min after the antidote administration.
Once the time of action determined, a dose response curve is performed in vivo to determine the dose of antidote necessary to obtain a decrease in Fondaparinux plasma concentration within the therapeutic range around 1.2 nmol/ml (or 2 mg/L), or around 0.7 nmol/ml (or 1.2 mg/L).

B1: AT-ΔR393-S394: human antithrombin with deletion of the amino acids at positions 393 and 394 (protein, listed as Homo sapiens)
chain: HGSPVDICTAKPRDIPMNPMCIYRSPEKKATEDEGSEQKIPEATNRRVWELSKANSRFATTFYQHLADSKNDNDNIFLSPLSISTAFAMTKLGACNDTLQQLMEVFKFDTISEKTSDQIHFFFAKLNCRLYRKANKSSKLVSANRLFGDKSLTFNETYQDISELVYGAKLQPLDFKENAEQSRAAINKWVSNKTEGRITDVIPSEAINELTVLVLVNTIYFKGLWKSKFSPENTRKELFYKADGESCSASMMYQEGKFRYRRVAEGTQVLELPFKGDDITMVLILPKPEKSLAKVEKELTPEVLQEWLDELEEMMLVVHMPRFRIEDGFSLKEQLQDMGLVDLFSPEKSKLPGIVAEGRDDLYVSDAFHKAFLEVNEEGSEAAASTAVVIAGLNPNRVTFKANRPFLVFIREVPLNTIIFMGRVANPCVK
As to B1, the “effect on anti-Xa activity of pentasaccharide containing plasma sample” value (from here on “effect on anti-Xa activity”) in assay [1] is “significant decrease”. Besides, the “plasma anti FXa activity in mice treated with pentasaccharide” value (from here on “plasma anti FXa activity in mice treated”) in assay [2] was “significant decrease”.

B2: AT-Pro394: human antithrombin with insertion of a Proline between positions 393 and 394 (protein, listed as Homo sapiens)
chain: HGSPVDICTAKPRDIPMNPMCIYRSPEKKATEDEGSEQKIPEATNRRVWELSKANSRFATTFYQHLADSKNDNDNIFLSPLSISTAFAMTKLGACNDTLQQLMEVFKFDTISEKTSDQIHFFFAKLNCRLYRKANKSSKLVSANRLFGDKSLTFNETYQDISELVYGAKLQPLDFKENAEQSRAAINKWVSNKTEGRITDVIPSEAINELTVLVLVNTIYFKGLWKSKFSPENTRKELFYKADGESCSASMMYQEGKFRYRRVAEGTQVLELPFKGDDITMVLILPKPEKSLAKVEKELTPEVLQEWLDELEEMMLVVHMPRFRIEDGFSLKEQLQDMGLVDLFSPEKSKLPGIVAEGRDDLYVSDAFHKAFLEVNEEGSEAAASTAVVIAGRPSLNPNRVTFKANRPFLVFIREVPLNTIIFMGRVANPCVK
Regarding B2, the “virtual pentasaccharide concentration at 2 or 4 fold molar excess compared to natural antithrombin” value in assay [1] (human plasma with 3 μg/ml pentasaccharide) was “decreases to a level comparable to curative pentasaccharide treatment”. Moreover, the “effect on anti-factor Xa activity at concentration equal to plasmatic antithrombin concentration” value in assay [1] (human plasma with 3 μg/ml pentasaccharide, ratio 1/1) is listed as “significantly decrease”. In addition, the “effect on anti-Xa activity” value in assay [1] is recorded as “significant decrease”. Also, the “plasma anti FXa activity in mice treated” value in assay [2] is “significant decrease”.

B3: AT-ΔR393: human antithrombin with deletion of the amino acid at position 393 (protein, listed as Homo sapiens)
chain: HGSPVDICTAKPRDIPMNPMCIYRSPEKKATEDEGSEQKIPEATNRRVWELSKANSRFATTFYQHLADSKNDNDNIFLSPLSISTAFAMTKLGACNDTLQQLMEVFKFDTISEKTSDQIHFFFAKLNCRLYRKANKSSKLVSANRLFGDKSLTFNETYQDISELVYGAKLQPLDFKENAEQSRAAINKWVSNKTEGRITDVIPSEAINELTVLVLVNTIYFKGLWKSKFSPENTRKELFYKADGESCSASMMYQEGKFRYRRVAEGTQVLELPFKGDDITMVLILPKPEKSLAKVEKELTPEVLQEWLDELEEMMLVVHMPRFRIEDGFSLKEQLQDMGLVDLFSPEKSKLPGIVAEGRDDLYVSDAFHKAFLEVNEEGSEAAASTAVVIAGSLNPNRVTFKANRPFLVFIREVPLNTIIFMGRVANPCVK
For B3, the “effect on anti-Xa activity” value in assay [1] is on record as “significant decrease”. The “plasma anti FXa activity in mice treated” value in assay [2] was “significant decrease”.

B4: AT-ΔS394: human antithrombin with deletion of the amino acid at position 394 (protein, listed as Homo sapiens)
chain: HGSPVDICTAKPRDIPMNPMCIYRSPEKKATEDEGSEQKIPEATNRRVWELSKANSRFATTFYQHLADSKNDNDNIFLSPLSISTAFAMTKLGACNDTLQQLMEVFKFDTISEKTSDQIHFFFAKLNCRLYRKANKSSKLVSANRLFGDKSLTFNETYQDISELVYGAKLQPLDFKENAEQSRAAINKWVSNKTEGRITDVIPSEAINELTVLVLVNTIYFKGLWKSKFSPENTRKELFYKADGESCSASMMYQEGKFRYRRVAEGTQVLELPFKGDDITMVLILPKPEKSLAKVEKELTPEVLQEWLDELEEMMLVVHMPRFRIEDGFSLKEQLQDMGLVDLFSPEKSKLPGIVAEGRDDLYVSDAFHKAFLEVNEEGSEAAASTAVVIAGRLNPNRVTFKANRPFLVFIREVPLNTIIFMGRVANPCVK
Regarding B4, in assay [1], the “effect on anti-Xa activity” value is “significant decrease”. Also, in assay [2], the “plasma anti FXa activity in mice treated” value is listed as “significant decrease”.
